From article PMC1891314

Tests used:
[1] = molecular target: OD_(CN54)+-Fc (outer domain of HIV-1 CN54 gp120, residues 251-481, with V295N+A394T, fused at its C terminus to the Fc domain of human IgG1) (HIV-1 CN54 | human); assay: SDS-PAGE under non-reducing conditions; purified Fc fusion proteins under non-reducing conditions; data not shown
[2] = molecular target: gp120_(CN54)+-Fc (HIV-1 CN54 gp120 with V295N+A394T, fused at its C terminus to the Fc domain of human IgG1) (HIV-1 CN54 | human); assay: as above

Row | Substance | stoichiometry N [1] | stoichiometry N [2]
1 | OD_(CN54)+-Fc (outer domain of HIV-1 CN54 gp120, residues 251-481, with V295N+A394T, fused at its C terminus to the Fc domain of human IgG1) (Fc fusion) | 2 | 
2 | gp120_(CN54)+-Fc (HIV-1 CN54 gp120 with V295N+A394T, fused at its C terminus to the Fc domain of human IgG1) (Fc fusion) |  | 2
